Test results from article PMC8575881, “Structure and activation mechanism of the hexameric plasma membrane H^+-ATPase” (Nature Communications, 2021).

What was measured:
[1] = target: the molecule itself; test: SEC + native gel or EMSA; Superdex 200 10/300 in 20 mM HEPES pH 7.4, 150 mM NaCl; native gel electrophoresis
[2] = target: the molecule itself; test: SEC + native gel or EMSA; Superose 6 10/300 Increase in 20 mM HEPES pH 7.4, 150 mM NaCl, 0.003% LMNG, 0.0003% CHS, 1 mM MgCl2; native PAGE 4-20%, Tris-glycine pH 8.8
[3] = target: the molecule itself; test: SEC + native gel or EMSA; gel filtration of Pma1-ΔC22 by the protocol of wild-type Pma1; fractions 10-16 ml on native PAGE

B1: SUMO-tagged helix-i (C-terminal 22 residues of Pma1) with an N-terminal 6xHis-SUMO tag and TEV site (domain or fragment, S. cerevisiae, UniProt P05030 897-918, looked up)
chain: TRSVEDFMAAMQRVSTQHEKET
notes: Pma1, S. cerevisiae, helix-i, the C-terminal 22 amino acids (T897-T918); A TEV protease cleavage site lies between the 6xHis-SUMO tag and the peptide; also called C-terminal helix-I peptide; C-tail helix-i; source: E. coli Rosetta (DE3), pET28a, purified (Ni-beads, Superdex 200 gel filtration); not shown: His6, N-terminal, kept; SUMO, N-terminal, kept
B1: binds [1].

B2: S. cerevisiae plasma membrane H+-ATPase Pma1, full length, with a C-terminal triple FLAG epitope (enzyme, UniProt P05030 1-918, looked up)
chain: MTDTSSSSSSSSASSVSAHQPTQEKPAKTYDDAASESSDDDDIDALIEELQSNHGVDDEDSDNDGPVAAGEARPVPEEYLQTDPSYGLTSDEVLKRRKKYGLNQMADEKESLVVKFVMFFVGPIQFVMEAAAILAAGLSDWVDFGVICGLLMLNAGVGFVQEFQAGSIVDELKKTLANTAVVIRDGQLVEIPANEVVPGDILQLEDGTVIPTDGRIVTEDCFLQIDQSAITGESLAVDKHYGDQTFSSSTVKRGEGFMVVTATGDNTFVGRAAALVNKAAGGQGHFTEVLNGIGIILLVLVIATLLLVWTACFYRTNGIVRILRYTLGITIIGVPVGLPAVVTTTMAVGAAYLAKKQAIVQKLSAIESLAGVEILCSDKTGTLTKNKLSLHEPYTVEGVSPDDLMLTACLAASRKKKGLDAIDKAFLKSLKQYPKAKDALTKYKVLEFHPFDPVSKKVTAVVESPEGERIVCVKGAPLFVLKTVEEDHPIPEDVHENYENKVAELASRGFRALGVARKRGEGHWEILGVMPCMDPPRDDTAQTVSEARHLGLRVKMLTGDAVGIAKETCRQLGLGTNIYNAERLGLGGGGDMPGSELADFVENADGFAEVFPQHKYRVVEILQNRGYLVAMTGDGVNDAPSLKKADTGIAVEGATDAARSAADIVFLAPGLSAIIDALKTSRQIFHRMYSYVVYRIALSLHLEIFLGLWIAILDNSLDIDLIVFIAIFADVATLAIAYDNAPYSPKPVKWNLPRLWGMSIILGIVLAIGSWITLTTMFLPKGGIIQNFGAMNGIMFLQISLTENWLIFITRAAGPFWSSIPSWQLAGAVFAVDIIATMFTLFGWWSENWTDIVTVVRVWIWSIGIFCVLGGFYYEMSTSEAFDRLMNGKPMKEKKSTRSVEDFMAAMQRVSTQHEKET
notes: Plasma membrane H+-ATPase Pma1, S. cerevisiae, 918-residue protein, full length; Co-purified with endogenous lipids; residues 1-110 are disordered in the structures; The FLAG tag is not reported to be removed; also called Pma1-FL; wild-type Pma1; source: endogenous, tagged in the genome of yeast strain BY4742
For B2, the “stoichiometry N” value [2] was 6.

B3: Pma1-ΔC22, helix-i truncated Pma1 with a C-terminal FLAG tag (domain or fragment, S. cerevisiae, UniProt P05030 1-896, looked up)
chain: MTDTSSSSSSSSASSVSAHQPTQEKPAKTYDDAASESSDDDDIDALIEELQSNHGVDDEDSDNDGPVAAGEARPVPEEYLQTDPSYGLTSDEVLKRRKKYGLNQMADEKESLVVKFVMFFVGPIQFVMEAAAILAAGLSDWVDFGVICGLLMLNAGVGFVQEFQAGSIVDELKKTLANTAVVIRDGQLVEIPANEVVPGDILQLEDGTVIPTDGRIVTEDCFLQIDQSAITGESLAVDKHYGDQTFSSSTVKRGEGFMVVTATGDNTFVGRAAALVNKAAGGQGHFTEVLNGIGIILLVLVIATLLLVWTACFYRTNGIVRILRYTLGITIIGVPVGLPAVVTTTMAVGAAYLAKKQAIVQKLSAIESLAGVEILCSDKTGTLTKNKLSLHEPYTVEGVSPDDLMLTACLAASRKKKGLDAIDKAFLKSLKQYPKAKDALTKYKVLEFHPFDPVSKKVTAVVESPEGERIVCVKGAPLFVLKTVEEDHPIPEDVHENYENKVAELASRGFRALGVARKRGEGHWEILGVMPCMDPPRDDTAQTVSEARHLGLRVKMLTGDAVGIAKETCRQLGLGTNIYNAERLGLGGGGDMPGSELADFVENADGFAEVFPQHKYRVVEILQNRGYLVAMTGDGVNDAPSLKKADTGIAVEGATDAARSAADIVFLAPGLSAIIDALKTSRQIFHRMYSYVVYRIALSLHLEIFLGLWIAILDNSLDIDLIVFIAIFADVATLAIAYDNAPYSPKPVKWNLPRLWGMSIILGIVLAIGSWITLTTMFLPKGGIIQNFGAMNGIMFLQISLTENWLIFITRAAGPFWSSIPSWQLAGAVFAVDIIATMFTLFGWWSENWTDIVTVVRVWIWSIGIFCVLGGFYYEMSTSEAFDRLMNGKPMKEKKS
notes: Plasma membrane H+-ATPase Pma1, S. cerevisiae, lacking helix-i, the last 22 residues (T897-T918) of the 918-residue protein; also called Pma1-△C22; source: S. cerevisiae BY4742 transformed with the PRS423 vector; purified as wild-type Pma1 (anti-FLAG M2, gel filtration)
B3: binds [3].
